This is an account of results in US20230092081A1.

For the test, the target named is S. ruber SSB cdel 111 C-terminal deletion mutant lacking the C-terminal 111 residues of the wildtype SSB (Salinibacter ruber). The test is described as follows: size exclusion chromatography, 150 mM NaCl, self-association.

For the substance “S. ruber SSB cdel 111 C-terminal deletion mutant lacking the C-terminal 111 residues of the wildtype SSB”, the oligomer mass as multiple of the monomer mass (times monomer size) was determined as 3.8.
